Measured values from article PMC10786891, “Massively parallel profiling of RNA-targeting CRISPR-Cas13d”.

B1: target 1 insA 3' of 12,insA 3' of 2 (mixed)
RNA 1: CACCCGUGCAAAAAUGCAGGGGUCUAAAACUGAGCGGAUAACCUCUCUAUGG
RNA 2: GGGAAUGGAUCCACAUCUACGAAUUCGUACCAUAGAGAGGAUUAUCCGCUCAACCGAGAUCGGAAGAGCACACGU
B2: target 1 insC 3' of 18,insG 3' of 8 (mixed)
RNA 1: CACCCGUGCAAAAAUGCAGGGGUCUAAAACUGAGCGGAUAACCUCUCUAUGG
RNA 2: GGGAAUGGAUCCACAUCUACGAAUUCGUACCAUACGAGAGGUUAUGCCGCUCACCGAGAUCGGAAGAGCACACGU
B3: target 1 insU 3' of 9,insA 3' of 5 (mixed)
RNA 1: CACCCGUGCAAAAAUGCAGGGGUCUAAAACUGAGCGGAUAACCUCUCUAUGG
RNA 2: GGGAAUGGAUCCACAUCUACGAAUUCGUACCAUAGAGAGGUUAUUCCGACUCACCGAGAUCGGAAGAGCACACGU
B4: target 1 U3G,G13A (mixed)
RNA 1: CACCCGUGCAAAAAUGCAGGGGUCUAAAACUGAGCGGAUAACCUCUCUAUGG
RNA 2: GGGAAUGGAUCCACAUCUACGAAUUCGUACCAUAGAGAAGUUAUCCGCGCACCGAGAUCGGAAGAGCACACGU
B5: target 1 U19A,C22U (mixed)
RNA 1: CACCCGUGCAAAAAUGCAGGGGUCUAAAACUGAGCGGAUAACCUCUCUAUGG
RNA 2: GGGAAUGGAUCCACAUCUACGAAUUCGUAUCAAAGAGAGGUUAUCCGCUCACCGAGAUCGGAAGAGCACACGU
B6: target 1 G5C,A20U (mixed)
RNA 1: CACCCGUGCAAAAAUGCAGGGGUCUAAAACUGAGCGGAUAACCUCUCUAUGG
RNA 2: GGGAAUGGAUCCACAUCUACGAAUUCGUACCUUAGAGAGGUUAUCCCCUCACCGAGAUCGGAAGAGCACACGU
B7: target 1 insG 3' of 7,insU 3' of 7 (mixed)
RNA 1: CACCCGUGCAAAAAUGCAGGGGUCUAAAACUGAGCGGAUAACCUCUCUAUGG
RNA 2: GGGAAUGGAUCCACAUCUACGAAUUCGUACCAUAGAGAGGUUAUCGUCGCUCACCGAGAUCGGAAGAGCACACGU
B8: target 1 C2A,C22G (mixed)
RNA 1: CACCCGUGCAAAAAUGCAGGGGUCUAAAACUGAGCGGAUAACCUCUCUAUGG
RNA 2: GGGAAUGGAUCCACAUCUACGAAUUCGUAGCAUAGAGAGGUUAUCCGCUAACCGAGAUCGGAAGAGCACACGU
B9: target 1 insU 3' of 13,insA 3' of 4 (mixed)
RNA 1: CACCCGUGCAAAAAUGCAGGGGUCUAAAACUGAGCGGAUAACCUCUCUAUGG
RNA 2: GGGAAUGGAUCCACAUCUACGAAUUCGUACCAUAGAGAGUGUUAUCCGCAUCACCGAGAUCGGAAGAGCACACGU
B10: target 1 insU 3' of 18,insU 3' of 14 (mixed)
RNA 1: CACCCGUGCAAAAAUGCAGGGGUCUAAAACUGAGCGGAUAACCUCUCUAUGG
RNA 2: GGGAAUGGAUCCACAUCUACGAAUUCGUACCAUAUGAGAUGGUUAUCCGCUCACCGAGAUCGGAAGAGCACACGU
B11: target 1 C6A,A14G (mixed)
RNA 1: CACCCGUGCAAAAAUGCAGGGGUCUAAAACUGAGCGGAUAACCUCUCUAUGG
RNA 2: GGGAAUGGAUCCACAUCUACGAAUUCGUACCAUAGAGGGGUUAUCAGCUCACCGAGAUCGGAAGAGCACACGU
B12: target 1 A18C,C22U (mixed)
RNA 1: CACCCGUGCAAAAAUGCAGGGGUCUAAAACUGAGCGGAUAACCUCUCUAUGG
RNA 2: GGGAAUGGAUCCACAUCUACGAAUUCGUAUCAUCGAGAGGUUAUCCGCUCACCGAGAUCGGAAGAGCACACGU
B13: target 1 insG 3' of 22,insA 3' of 10 (mixed)
RNA 1: CACCCGUGCAAAAAUGCAGGGGUCUAAAACUGAGCGGAUAACCUCUCUAUGG
RNA 2: GGGAAUGGAUCCACAUCUACGAAUUCGUACGCAUAGAGAGGUUAAUCCGCUCACCGAGAUCGGAAGAGCACACGU

Molecular target: T1, EsCas13d, nuclease-dead (Eubacterium siraeum, UniProt B0MS50, R295A;H300A;R849A;H854A)
T1 sequence: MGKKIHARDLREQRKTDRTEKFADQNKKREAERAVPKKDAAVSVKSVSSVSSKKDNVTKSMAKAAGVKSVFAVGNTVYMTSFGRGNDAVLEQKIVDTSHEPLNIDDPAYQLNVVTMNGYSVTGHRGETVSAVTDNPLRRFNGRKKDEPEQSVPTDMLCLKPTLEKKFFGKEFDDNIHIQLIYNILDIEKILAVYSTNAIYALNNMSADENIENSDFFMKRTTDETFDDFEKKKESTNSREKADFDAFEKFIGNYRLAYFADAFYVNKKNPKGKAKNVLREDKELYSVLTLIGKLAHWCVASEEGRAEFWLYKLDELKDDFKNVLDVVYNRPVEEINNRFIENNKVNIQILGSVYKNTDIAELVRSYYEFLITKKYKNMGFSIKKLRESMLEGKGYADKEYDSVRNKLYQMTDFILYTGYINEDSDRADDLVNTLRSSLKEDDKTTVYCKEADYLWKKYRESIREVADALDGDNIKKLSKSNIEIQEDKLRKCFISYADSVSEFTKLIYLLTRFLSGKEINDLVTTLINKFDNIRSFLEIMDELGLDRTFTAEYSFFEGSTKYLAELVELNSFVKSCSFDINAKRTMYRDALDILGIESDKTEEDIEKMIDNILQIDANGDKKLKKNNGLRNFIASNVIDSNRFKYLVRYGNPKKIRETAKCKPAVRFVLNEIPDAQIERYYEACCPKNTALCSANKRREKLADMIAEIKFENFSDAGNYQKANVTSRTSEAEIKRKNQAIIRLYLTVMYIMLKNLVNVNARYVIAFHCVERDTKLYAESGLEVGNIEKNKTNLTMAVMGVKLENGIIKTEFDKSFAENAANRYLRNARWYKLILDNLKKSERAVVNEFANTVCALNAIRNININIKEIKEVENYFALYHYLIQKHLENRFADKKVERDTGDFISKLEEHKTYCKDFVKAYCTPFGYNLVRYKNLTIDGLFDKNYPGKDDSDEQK
Assay: crRNA (strand 1, pre-loaded); Mg2+; 40 mM Tris-HCl pH 7.5, 150 mM NaCl, 6 mM MgCl2, 1 mM DTT, 0.1% Tween-20, 0.2 mg/ml BSA; 25 C; 10 min per concentration, then washed
Conditions: tags: His6-TwinStrep-SUMO cleaved; N-terminal SNAP kept (SNAP-Surface 488); label: 3' end held by stalled T7 RNA polymerase

| Binder | Kd |
| --- | --- |
| B1 | 0.0342 ± 0.0031 µM |
| B2 | 0.0534 ± 0.0033 µM |
| B3 | 0.0066 ± 0.0008 µM |
| B4 | 0.0054 ± 0.0008 µM |
| B5 | 0.07 ± 0.019 µM |
| B6 | 0.063 ± 0.012 µM |
| B7 | 0.00926 ± 0.00034 µM |
| B8 | ~0.08 µM |
| B9 | 0.0135 ± 0.0015 µM |
| B10 | 0.073 ± 0.012 µM |
| B11 | 0.0126 ± 0.0009 µM |
| B12 | 0.059 ± 0.007 µM |
| B13 | 0.025 ± 0.0015 µM |
